Experimental data: US20100310640A1 (published 2010)

What was measured:
[1] = target: HLA-DR DRB1*1501 (human); assay: radioligand inhibition, purified HLA-DR
[2] = target: HLA-DR DRB1*0101 (human); assay: radioligand inhibition, purified HLA-DR
[3] = target: HLA-DR DRB1*1302 (human); assay: radioligand inhibition, purified HLA-DR
[4] = target: HLA-DR DRB1*0401 (human); assay: radioligand inhibition, purified HLA-DR
[5] = target: HLA-DR DRB1*0701 (human); assay: radioligand inhibition, purified HLA-DR
[6] = target: HLA-DR DRB1*0301 (human); assay: radioligand inhibition, purified HLA-DR
[7] = target: HLA-DR DRB1*1501 (human); assay: radiolabeled-peptide inhibition, purified HLA-DR
[8] = target: HLA-DR DRB1*1501 (human); assay: radioligand inhibition, purified HLA-DR; remark: listed apart in the source
[9] = target: HLA-DR DRB1*0101 (human); assay: radiolabeled-peptide inhibition, purified HLA-DR
[10] = target: HLA-DR DRB1*1501 (human); assay: radioligand inhibition, purified HLA-DR; remark: listed apart in the source
[11] = target: HLA-DR DRB1*0101 (human); assay: radioligand inhibition, purified HLA-DR; remark: listed apart in the source
[12] = target: HLA-DR DRB1*1302 (human); assay: radioligand inhibition, purified HLA-DR; remark: listed apart in the source
[13] = target: HLA-DR DRB1*0401 (human); assay: radioligand inhibition, purified HLA-DR; remark: listed apart in the source
[14] = target: HLA-DR DRB1*0701 (human); assay: radioligand inhibition, purified HLA-DR; remark: listed apart in the source
[15] = target: HLA-DR DRB1*0301 (human); assay: radioligand inhibition, purified HLA-DR; remark: listed apart in the source
[16] = target: HLA-DR DRB3*0101 (human); assay: radioligand inhibition, purified HLA-DR
[17] = target: HLA-DR DRB1*0401 (human); assay: radiolabeled-peptide inhibition, purified HLA-DR
[18] = target: HLA-DR DRB1*0701 (human); assay: radiolabeled-peptide inhibition, purified HLA-DR

PERLAACGPPPVAPP [Peptide 9019.0179]
IC50 [1]: 4.05 µM

WNLAAMTPHDFIEHF [Cyclin D1.150]
IC50 [2]: 6.42 µM

RPRFRELVSEFSRMA [Peptide 9019.0095]
IC50 [1]: 0.348 µM

GDPLNNTTPVTGASP [Her2/neu.120]
IC50 [2]: 6.36 µM
IC50 [3]: 1030 nM
IC50 [4]: 7.46 µM
IC50 [5]: 13.2 µM

EELLQMELLLVNKLK [Cyclin D1.135]
IC50 [6]: 3.39 µM

ILLVVVLGVVFGILI [9019.0068]
IC50 [7]: 7120 nM

PESFDGDPASNTAPL [9019.0048]
IC50 [7]: 805 nM

MRKIVATWMLEVCEE [Cyclin D1.56]
IC50 [8]: 87 nM

PSGVKPDLSYMPIWK [9019.0065]
IC50 [9]: 1030 nM

INGIPQQHTQVLFIA [CEA.629 peptide 9019.0139]
IC50 [10]: 8.29 µM

LPRVGCPALPLPPPP [Peptide 9919.0173]
IC50 [11]: 1910 nM
IC50 [12]: 8.94 µM
IC50 [13]: 6.54 µM

APTIRGDPECHLFYN [Peptide 9019.0022]
IC50 [1]: 3.67 µM

CYGLGMEHLREVRAV [9019.0044]
IC50 [7]: 690 nM

SEGGLVENHVDSTMN [Peptide 9019.0183]
IC50 [13]: 1.2 µM
IC50 [14]: 4.62 µM

LQGLPREYVNARHCL [9019.0064]
IC50 [7]: 423 nM

LQRYSEDPTVPLPSE [Peptide 9019.0099]
IC50 [1]: 5.31 µM

CAELVREPGCGCCSV [Peptide 9019.0015]
IC50 [15]: 12.3 µM

ELPLQALVMGEGTCE [Peptide 9019.0182]
IC50 [11]: 1500 nM
IC50 [12]: 9.17 µM
IC50 [13]: 6.78 µM
IC50 [14]: 15.6 µM

ITGYLYISAWPDSLP [9019.0050]
IC50 [7]: 152 nM

ICELHCPALVTYNTD [Her2/neu.263]
IC50 [8]: 748 nM

DNSIRPEELLQMELL [Cyclin D1.129]
IC50 [8]: 4760 nM

FRELVSEFSRMARDP [Peptide 9019.0096]
IC50 [16]: 4.54 µM

GMSYLEDVRLVHRDL [9019.0002]
IC50 [7]: 567 nM

KLCIYTDNSIRPEEL [Cyclin D1.123]
IC50 [8]: 25 nM

TTPVTGASPGGLREL [Her2/neu.126]
IC50 [8]: 17100 nM

SDVWSYGVTVWELMT [9019.0089]
IC50 [7]: 1880 nM

EALLESSLRQAQQNM [Cyclin D1.252]
IC50 [8]: 8180 nM

GHCWGPGPTQCVNCS [9019.0061]
IC50 [9]: 1910 nM
IC50 [17]: 3.74 µM
IC50 [18]: 6.74 µM

KIPVAIKVLRENTSP [1622.03]
IC50 [7]: 611 nM

SDSVILNVLYGPDAP [CEA.123 peptide 9019.0119 (position 226)]
IC50 [10]: 0.351 µM

TVGIMIGVLVGVALI [CEA.688 peptide 9019.05]
IC50 [10]: 7.77 µM

ISAVVGILLVVVLGV [9019.0067]
IC50 [7]: 6000 nM

VCGIQNSVSANRSDP [CEA.570 peptide 9012.0135]
IC50 [10]: 8.98 µM

RWCIPWQRLLLTASL [CEA.10 peptide 9019.0104]
IC50 [10]: 0.061 µM

SITVSASGTSPGLSA [CEA.671 peptide 9919.0143]
IC50 [10]: 3.11 µM

ICTIDVYMIMVKCWM [Peptide 1622.04]
IC50 [1]: 2.65 µM

GATLERPKTLSPGKN [Peptide 9019.0102]
IC50 [11]: 1810 nM
IC50 [12]: 5.33 µM
IC50 [13]: 2.79 µM

QYSWRINGIPQQHTQ [CEA.624 peptide 9019.0138]
IC50 [10]: 2.07 µM

SSYLSGANLNLSCHS [CEA.603 peptide 9012.0137]
IC50 [10]: 13 µM

SPGLSAGATVGIMIG [CEA.680 peptide 9019.0144]
IC50 [10]: 3.93 µM
